Data: patent US20070258972A1, “Combination of a Histone Deacetylase Inhibitor with a Death Receptor Ligand” (priority 2003, published 2007)

Tested on: Primary AML cells
Assay: Apoptosis of primary AML cells by annexin V staining and flow cytometry
Assay type: cell-based, human
Conditions: for % of Apoptosis: LAQ824 100 nM and/or Apo-2L/TRAIL 100 ng/mL, 24 hours
Source text: Jurkat T cell leukemia and SKW6.4 B lymphoblast cells are obtained from American Tissue Culture Collection (Manassas, Va.). HL-60/Bcl-2 cells with ectopic over-expression of Bcl-2 and the control HL-60/Neo cells are created and maintained in culture as previously described. Primary leukemia blasts from six patients with AML in relapse are harvested, as previously described, from the peripheral blood or bone marrow after informed consent, as a part of a protocol study sanctioned by the local Institutional Review Board. The purity of leukemia blasts in the samples prior to culture in LAQ824 and/or Apo-2L/TRAIL was at least 80% or more, as determined by morphologic evaluation after Wright staining.
After drug treatments, cells are resuspended in 100 μL of the staining solution containing annexin-V fluorescein and propidium iodide in a HEPES buffer (Annexin-V-FLUOS Staining Kit, Boehringer-Mannheim, and Indianapolis, Ind.). Following incubation at room temperature for 15 minutes, annexin V positive cells are estimated by flow cytometry, as previously described.

B1: Apo-2L/TRAIL: recombinant human trimeric form of Apo-2L/TRAIL from Genentech, Inc., produced in E. coli (protein, UniProt P50591 1-281, looked up)
Tumor necrosis factor ligand …: MAMMEVQGGPSLGQTCVLIVIFTVLLQSLCVAVTYVYFTNELKQMQDKYSKSGIACFLKEDDSYWDPNDEESMNSPCWQVKWQLRQLVRKMILRTSEETISTVQEKQQNISPLVRERGPQRVAAHITGTRGRSNTLSSPNSKNEKALGRKINSWESSRSGHSFLSNLHLRNGELVIHEKGFYYIYSQTYFRFQEEIKENTKNDKQMVQYIYKYTSYPDPILLMKSARNSCWSKDAEYGLYSIYQGGIFELKENDRIFVSVTNEHLIDMDHEASFFGAFLVG
modifications: trimeric
notes: recombinant human trimeric form of Apo-2L/TRAIL from Genentech, Inc., produced in E. coli
- % of Apoptosis (Patient 1 primary AML cells, control 7.0): 7.6%
- % of Apoptosis (Patient 2 primary AML cells, control 12.0): 14.0%
- % of Apoptosis (Patient 3 primary AML cells, control 8.0): 8.6%
- % of Apoptosis (Patient 4 primary AML cells, control 10.0): 11.0%
- % of Apoptosis (Patient 5 primary AML cells, control 6.0): 6.8%
- % of Apoptosis (Patient 6 primary AML cells, control 7.0): 8.1%
- apoptosis of primary AML blasts (in words) (six samples, relapsed AML, Apo-2L/TRAIL 100 ng/mL, LAQ824 100 nM): resistant
